These are literature values, as cited in PMC7077193.

The data set deals with eIF4E (Lactuca sativa).

Usually Kd stands for the constant that tells how readily two partners part at equilibrium. With VPg (from UniProt P31999), the Kd was 300 nM.
